{"source": "paper PMC4833825", "target": "recombinant S. pombe eIF2B, one set of the five subunits (α, β, γ, δ, ε), tags cleaved (S. pombe) (UniProt Q9USP0)", "assay": "SEC; purified complex after HRV 3C cleavage of the tags; Sephacryl S-300, then Superose 6 with HMW calibration kit, buffer C (20 mM HEPES-KOH pH 7.5, 150 mM KCl, 5 % glycerol, 1 mM DTT), 277 K; SDS-PAGE of the purified complex"}
{"substance": "recombinant S. pombe eIF2B, one set of the five subunits (α, β, γ, δ, ε), tags cleaved, Q9USP0 1-341; Q9UT76 1-393; P56288 1-458; Q09924 1-467; P56287 1-678", "values": [{"measurement": "stoichiometry N", "value": 2}]}
